18 molecules from patent US20220089698A1 can be followed below.

A value given as a limit tells only on which side of the number the result lay.

Test in all cases: cell-based or functional assay
In assay [1] the target is HIV-1 envelope glycoprotein (gp120) of virus VS001 (HIV-1).
The target of assay [2] is HIV-1 envelope glycoprotein (gp120) of virus 92US727 (HIV-1).
The target in assay [3] is HIV-1 envelope glycoprotein (gp120) of virus 7141 (HIV-1).

B1: 3.1.9-1 (antibody, human IgG1, kappa, V domains shown)
VH: QVQLLQSGAAVTKPGASVRVSCEASGYNIRDYFIHWWRQAPGQGLQWVGWINPKTGQPNNPRQFQGRVSLTRHASWDFDTFSFYMDLKALRSDDTAVYFCARQRSDYWDFDVWGSGTQVTVSS
VL: DIQMTQSPSSLSARVGDTATITCQANGYLNWYQQRRGKAPKLLIYDGSKLERGVPARFSGRRWGQEYNLTINNLQPEDVATYFCQVYEFFGPGTRLDLKR
As for B1, the values for the Neutralization IC50 in assay [1], in assay [2] and in assay [3] were 0.16 µg/mL, 3.54 µg/mL and 4.35 µg/mL, respectively.

B2: 2.2.13-1 (antibody, human IgG1, kappa, V domains shown)
VH: QVHLSQSGAAVTKPGASVRVSCEASGYKIRDHFIHWWRQAPGQGLQWVGWINPKTGQPNNPRQFQGRVSLTRHASWDFDTFSFYMDLKAVRSDDTAIYFCARQRSDYWDFDVWGSGTQVTVSS
VL: DIQMTQSPSSLSARVGDRATITCQANGYLNWYQQRRGKAPKLLIYDGSKLERGVPARFSGSRWGQEYILTISSLQPEDVATYFCQVYEFFGPGTRLDLKR
As for B2, the Neutralization IC50 in assay [1] is 1.48 µg/mL; in assay [2], over 50 µg/mL; in assay [3], 3.8 µg/mL.

B3: 3.1.15-1 (antibody, human IgG1, kappa, V domains shown)
VH: QVQLLQSGAAVTKPGASVRVSCEASGYNIRDYFIHWWRQAPGQGLQWVGWINPKTGQPNNPRQFQGRVSLTRHASWDFDTFSFYMDLKALRSDDTAVYFCARQRSDYWDFDVWGSGTQVTVSS
VL: DIQMTQSPSSLSARVGDTATITCQANGYLNWYQQRRGKAPKLLIYDGSKLERGVPARFSGRRWGQEYTLTINNLQPEDVATYFCQVYEFFGPGTRLDLKR
In the case of B3, the Neutralization IC50 in assay [1] was 0.49 µg/mL; in assay [2], over 33 µg/mL; in assay [3], 9.1 µg/mL.

B4: 2.3.12-1 (antibody, human IgG1, kappa, V domains shown)
VH: QVHLSQSGAAVTKPGASVRVSCEASGYNIRDYFIHWWRQAPGQGLQWVGWINPKTGQPNNPRQFQGRVSLTRHASWDFDTFSFYMDLKAVRSDDTAIYFCARQRSDYWDFDVWGSGTQVTVSS
VL: DIQMTQSPSSLSARVGDTATITCQANGYLNWYQQRRGKAPKLLIYDGSKLERGVPARFSGRRWGQEYILTINNLQPEDVATYFCQVYEFFGPGTRLDLKR
For B4, the Neutralization IC50 in assay [1] was 1.92 µg/mL; in assay [2] it was over 50 µg/mL; in assay [3], 23.8 µg/mL.

B5: 2.2.9-1 (antibody, human IgG1, kappa, V domains shown)
VH: QVHLSQSGAAVTKPGASVRVSCEASGYKIRDHFIHWWRQAPGQGLQWVGWINPKTGQPNNPRQFQGRVSLTRHASWDFDTFSFYMDLKAVRSDDTAIYFCARQRSDYWDFDVWGSGTQVTVSS
VL: DIQMTQSPSSLSARVGDTATITCQANGYLNWYQQRRGKAPKLLIYDGSKLERGVPARFSGRRWGQEYNLTINNLQPEDVATYFCQVYEFFGPGTRLDLKR
In the case of B5, the Neutralization IC50 in assay [1] was 0.15 µg/mL; in assay [2], 13.1 µg/mL; in assay [3], 1.75 µg/mL.

B6: 3.1.13-1 (antibody, human IgG1, kappa, V domains shown)
VH: QVQLLQSGAAVTKPGASVRVSCEASGYNIRDYFIHWWRQAPGQGLQWVGWINPKTGQPNNPRQFQGRVSLTRHASWDFDTFSFYMDLKALRSDDTAVYFCARQRSDYWDFDVWGSGTQVTVSS
VL: DIQMTQSPSSLSARVGDRATITCQANGYLNWYQQRRGKAPKLLIYDGSKLERGVPARFSGSRWGQEYILTISSLQPEDVATYFCQVYEFFGPGTRLDLKR
In the case of B6, the Neutralization IC50 in assay [1] was 0.56 µg/mL; in assay [2], over 21 µg/mL; in assay [3], 13.2 µg/mL.

B7: 1.1.119-1 (antibody, human IgG1, kappa, V domains shown)
VH: QVQLLQSGAAVTKPGASVRVSCEASGYNIRDYFIHWWRQAPGQGLQWVGWINPKTGQPNNPRQFQGRVSLTRHASWDFDTFSFYMDLKALRSDDTAVYFCARQRSDYWDFDVWGSGTQVTVSS
VL: DIQMTQSPSSLSASVGDRATITCQANGYLNWYQQRRGKAPKLLIYDGSKLERGVPSRFSGSRWGQEYTLTISSLQPEDIATYFCQVYEFFGPGTRLDLKR
Consider B7, for which the results for the Neutralization IC50 in assay [1], in assay [2] and in assay [3] were 0.39 µg/mL, over 50 µg/mL and 6.92 µg/mL, respectively.

B8: 1.1.117-1 (antibody, human IgG1, kappa, V domains shown)
VH: QVQLLQSGAAVTKPGASVRVSCEASGYNIRDYFIHWWRQAPGQGLQWVGWINPKTGQPNNPRQFQGRVSLTRHASWDFDTFSFYMDLKALRSDDTAVYFCARQRSDYWDFDVWGSGTQVTVSS
VL: DIQMTQSPSSLSASVGDTATITCQANGYLNWYQQRRGKAPKLLIYDGSKLERGVPSRFSGRRWGQEYILTINNLQPEDIATYFCQVYEFFGPGTRLDLKR
Consider B8, for which the Neutralization IC50 in assay [1] was 3.03 µg/mL; in assay [2] it was over 50 µg/mL; in assay [3] it was 16.9 µg/mL.

B9: 2.3.13-1 (antibody, human IgG1, kappa, V domains shown)
VH: QVHLSQSGAAVTKPGASVRVSCEASGYNIRDYFIHWWRQAPGQGLQWVGWINPKTGQPNNPRQFQGRVSLTRHASWDFDTFSFYMDLKAVRSDDTAIYFCARQRSDYWDFDVWGSGTQVTVSS
VL: DIQMTQSPSSLSARVGDRATITCQANGYLNWYQQRRGKAPKLLIYDGSKLERGVPARFSGSRWGQEYILTISSLQPEDVATYFCQVYEFFGPGTRLDLKR
Take B9: the Neutralization IC50 in assay [1] was 1.5 µg/mL; in assay [2], over 38 µg/mL; in assay [3], 15.5 µg/mL.

B10: 3.1.12-1 (antibody, human IgG1, kappa, V domains shown)
VH: QVQLLQSGAAVTKPGASVRVSCEASGYNIRDYFIHWWRQAPGQGLQWVGWINPKTGQPNNPRQFQGRVSLTRHASWDFDTFSFYMDLKALRSDDTAVYFCARQRSDYWDFDVWGSGTQVTVSS
VL: DIQMTQSPSSLSARVGDTATITCQANGYLNWYQQRRGKAPKLLIYDGSKLERGVPARFSGRRWGQEYILTINNLQPEDVATYFCQVYEFFGPGTRLDLKR
Take B10: the figures for the Neutralization IC50 in assay [1], in assay [2] and in assay [3] were 2.41 µg/mL, over 41 µg/mL and 24.5 µg/mL, respectively.

B11: 2.2.7-1 (antibody, human IgG1, kappa, V domains shown)
VH: QVHLSQSGAAVTKPGASVRVSCEASGYKIRDHFIHWWRQAPGQGLQWVGWINPKTGQPNNPRQFQGRVSLTRHASWDFDTFSFYMDLKAVRSDDTAIYFCARQRSDYWDFDVWGSGTQVTVSS
VL: DIQMTQSPSSLSARVGDRATITCQANGYLNWYQQRRGKAPKLLIYDGSKLERGVPARFSGSRWGQEYTLTISSLQPEDVATYFCQVYEFFGPGTRLDLKR
As for B11, the Neutralization IC50 was 0.27 µg/mL in assay [1], over 50 µg/mL in assay [2] and 1.58 µg/mL in assay [3].

B12: 1.1.118-1 (antibody, human IgG1, kappa, V domains shown)
VH: QVQLLQSGAAVTKPGASVRVSCEASGYNIRDYFIHWWRQAPGQGLQWVGWINPKTGQPNNPRQFQGRVSLTRHASWDFDTFSFYMDLKALRSDDTAVYFCARQRSDYWDFDVWGSGTQVTVSS
VL: DIQMTQSPSSLSASVGDRATITCQANGYLNWYQQRRGKAPKLLIYDGSKLERGVPSRFSGSRWGQEYILTISSLQPEDIATYFCQVYEFFGPGTRLDLKR
Consider B12, for which the Neutralization IC50 in assay [1] was 2.4 µg/mL; in assay [2], over 50 µg/mL; in assay [3] it was 20.2 µg/mL.

B13: 3.1.7-1 (antibody, human IgG1, kappa, V domains shown)
VH: QVQLLQSGAAVTKPGASVRVSCEASGYNIRDYFIHWWRQAPGQGLQWVGWINPKTGQPNNPRQFQGRVSLTRHASWDFDTFSFYMDLKALRSDDTAVYFCARQRSDYWDFDVWGSGTQVTVSS
VL: DIQMTQSPSSLSARVGDRATITCQANGYLNWYQQRRGKAPKLLIYDGSKLERGVPARFSGSRWGQEYTLTISSLQPEDVATYFCQVYEFFGPGTRLDLKR
For B13, the Neutralization IC50 is 0.3 µg/mL in assay [1], over 50 µg/mL in assay [2] and 5.65 µg/mL in assay [3].

B14: 2.3.15-1 (antibody, human IgG1, kappa, V domains shown)
VH: QVHLSQSGAAVTKPGASVRVSCEASGYNIRDYFIHWWRQAPGQGLQWVGWINPKTGQPNNPRQFQGRVSLTRHASWDFDTFSFYMDLKAVRSDDTAIYFCARQRSDYWDFDVWGSGTQVTVSS
VL: DIQMTQSPSSLSARVGDTATITCQANGYLNWYQQRRGKAPKLLIYDGSKLERGVPARFSGRRWGQEYTLTINNLQPEDVATYFCQVYEFFGPGTRLDLKR
With B14, the Neutralization IC50 in assay [1] is 0.85 µg/mL; in assay [2] it was over 50 µg/mL; in assay [3] it was 5.93 µg/mL.

B15: 2.3.9-1 (antibody, human IgG1, kappa, V domains shown)
VH: QVHLSQSGAAVTKPGASVRVSCEASGYNIRDYFIHWWRQAPGQGLQWVGWINPKTGQPNNPRQFQGRVSLTRHASWDFDTFSFYMDLKAVRSDDTAIYFCARQRSDYWDFDVWGSGTQVTVSS
VL: DIQMTQSPSSLSARVGDTATITCQANGYLNWYQQRRGKAPKLLIYDGSKLERGVPARFSGRRWGQEYNLTINNLQPEDVATYFCQVYEFFGPGTRLDLKR
Take B15: the figures for the Neutralization IC50 in assay [1], in assay [2] and in assay [3] were 0.22 µg/mL, 11.1 µg/mL and 2.56 µg/mL, respectively.

B16: 2.2.12-1 (antibody, human IgG1, kappa, V domains shown)
VH: QVHLSQSGAAVTKPGASVRVSCEASGYKIRDHFIHWWRQAPGQGLQWVGWINPKTGQPNNPRQFQGRVSLTRHASWDFDTFSFYMDLKAVRSDDTAIYFCARQRSDYWDFDVWGSGTQVTVSS
VL: DIQMTQSPSSLSARVGDTATITCQANGYLNWYQQRRGKAPKLLIYDGSKLERGVPARFSGRRWGQEYILTINNLQPEDVATYFCQVYEFFGPGTRLDLKR
As for B16, the Neutralization IC50 in assay [1] was 2.1 µg/mL; in assay [2] it was over 50 µg/mL; in assay [3], 7.08 µg/mL.

B17: 1.1.104-1 (antibody, human IgG1, kappa, V domains shown)
VH: QVQLLQSGAAVTKPGASVRVSCEASGYNIRDYFIHWWRQAPGQGLQWVGWINPKTGQPNNPRQFQGRVSLTRHASWDFDTFSFYMDLKALRSDDTAVYFCARQRSDYWDFDVWGSGTQVTVSS
VL: DIQMTQSPSSLSASVGDTATITCQANGYLNWYQQRRGKAPKLLIYDGSKLERGVPSRFSGRRWGQEYTLTINNLQPEDIATYFCQVYEFFGPGTRLDLKR
Turning to B17, the figures for the Neutralization IC50 in assay [1], in assay [2] and in assay [3] were 0.45 µg/mL, over 50 µg/mL and 5.13 µg/mL, respectively.

B18: 2.2.15-1 (antibody, human IgG1, kappa, V domains shown)
VH: QVHLSQSGAAVTKPGASVRVSCEASGYKIRDHFIHWWRQAPGQGLQWVGWINPKTGQPNNPRQFQGRVSLTRHASWDFDTFSFYMDLKAVRSDDTAIYFCARQRSDYWDFDVWGSGTQVTVSS
VL: DIQMTQSPSSLSARVGDTATITCQANGYLNWYQQRRGKAPKLLIYDGSKLERGVPARFSGRRWGQEYTLTINNLQPEDVATYFCQVYEFFGPGTRLDLKR
B18: the Neutralization IC50 is 0.37 µg/mL in assay [1], over 50 µg/mL in assay [2] and 1.99 µg/mL in assay [3].
